Test results taken from patent US5942663A, “Biocidal proteins” (Zeneca Limited, priority 1991, dated 1999).
No end group written: not given here.

What was measured:
Verticillium dahliae = format: cell-based; conditions: V dahliae, 48 hours of incubation
Venturia inaequalis = format: cell-based; conditions: V inaequalis, 10 days of incubation
Escherichia coli = experiment: Antibacterial activity in vitro test; format: cell-based; conditions: E coli, 48 hours
Experimental: (§1) The antibacterial activity of the Mj-AMPs was tested against a range of gram-positive and gram-negative bacteria: Bacillus megaterium, Sarcina lutea, Escherichia coli and Erwinia carotovora. β-purothionin and UDA were also tested for comparison (see Example 7). Tests were performed in soft agarose medium containing 1% tryptone and, with or without 1 mM CaCl2 and 50 mM KCl. Absorbance, 595 nm, of the culture was measured after 48 hours.

Sarcina lutea = experiment: Antibacterial activity in vitro test; format: cell-based; conditions: S lutea, 48 hours
Experimental: as §1

Erwinia carotovora = experiment: Antibacterial activity in vitro test; format: cell-based; conditions: E carotovora, 48 hours
Experimental: as §1

Bacillus megaterium = experiment: Antibacterial activity in vitro test; format: cell-based; conditions: B megaterium, 48 hours
Experimental: as §1

Fusarium culmorum [1] = format: cell-based; conditions: F culmorum, 48 hours of incubation
Phoma betae = format: cell-based; conditions: P betae, 48 hours of incubation
Nectria haematococca = format: cell-based; conditions: N haematococca, 48 hours of incubation
[2] = test system: Fusarium oxysporum f.sp. lycopersici; format: cell-based; conditions: 48 hours of incubation
Alternaria brassicola = format: cell-based; conditions: A brassicola, 48 hours of incubation
Isoelectric focusing = format: physicochemical; conditions: isoelectric focusing on Immobiline Dry Strips
Experimental: PAS staining for glycoproteins was done by the method of Zacharius, RM et al (1969; Anal Biochem, 30, 148-152) using ovalbumin (3.2% carbohydrate) as a positive control sample. The pI values of Mj-AMP1 and Mj-AMP2 were determined by isoelectric focusing and found to be about 10.5 for both proteins. Isoelectric focussing was done on precast Immobiline Dry Strips (Pharmacia) using marker proteins in the pI range from 4.7 to 10.6 (Pharmacia).

[3] = test system: Pyrenophora tritici-repentis; format: cell-based; conditions: P tritici-repentis, 48 hours of incubation
Saccharomyces cerevisiae = experiment: Inhibitory activity against yeast; format: cell-based; parameters: key: +++:complete inhibition; +:some inhibition; -:no inhibition
Experimental: The inhibitory activity of Mj-AMPs against yeast, Saccharomyces cerevisiae was tested. The results shown in Table 5 indicate that Mj-AMPs do inhibit the growth of yeast at concentrations of 500 μg/ml or above.

[4] = test system: Fusarium oxysporum f.sp. pisi; format: cell-based; conditions: 48 hours of incubation
Ascochyta pisi = format: cell-based; conditions: A pisi, 48 hours of incubation
Fusarium culmorum [5] = experiment: Stability of the antifungal activity of the Mj-AMPs; format: cell-based
Experimental: Antifungal activity was measured by microspectrophotometry as previously described (Broekaert, WF et al; 1990; FEMS Microbiol Lett, 69, 55-60). Routinely, tests were performed with 20 μl of a (filter-sterilized) test solution and 80 μl of a fungal spore suspension (2×10^4 spores/ml) in half strength Potato Dextrose Broth (Difco). Control microcultures contained 20 μl of (sterile) distilled water and 80 μl of the fungal spore suspension. Unless otherwise stated the test organism was Fusarium culmorum and incubation was done at 25° C. for 48 hours. Percent growth inhibition is defined as 100 times the ratio of the corrected absorbance of the control microculture minus the corrected absorbance of the test microculture over the corrected absorbance at 595 nm of the control microculture. The corrected absorbance values equal the absorbance at 595 nm of the culture measured after 48 hours minus the absorbance at 595 nm measured after 30 min. Values of growth inhibition lower than 10% are not indicated on the chromatograms.
Table 1 summarises the results of further testing of the stability of the antifungal activity of the Mj-AMPs. Tests for antifungal activity were performed with 20 μl samples diluted five-fold with growth medium containing Fusarium culmorum spores (2×10^4 spores/ml), according to the assay method given in Example 2. Control samples contained either Mj-AMP1 at 500 μg/ml or Mj-AMP2 at 100 μg/ml in 10 mM sodium phosphate buffer (pH 7). Reduction was done by addition of DTT at 2.5 mM followed by incubation at 37° C. for 2 hours. pH stability was tested in the following buffers: 20 mM glycine-HCl (pH 2 and 3); 20 mM diethanolamine-HCl (pH 10); and 20 mM glycine-NaOH (pH 11). After 1 hour of incubation in the appropriate buffers the samples were dialyzed for 16 hours against 10 mm sodium phosphate buffer (pH 7). For digestions, proteases were added at 100 μg/ml and incubated at 37° C. for 16 hours.

[6] = test system: Colletotrichum lindemuthianum; format: cell-based; conditions: C lindemuthianum, 48 hours of incubation
Botrytis cinerea = format: cell-based; conditions: B cinerea, 48 hours of incubation
Pyricularia oryzae = format: cell-based
[7] = MEDIUM +Ca/K (1 mM CaCl2 and 50 mM KCl)

Mj-AMP2: antimicrobial protein from Mirabilis jalapa seeds, dimer of two 3.5 kDa subunits, 36 residues, SEQ ID NO:2 (CIGNGGRCNENVGPPYCCSGFCLRQPNQGYGVCRNR; cysteine pairing not given here; also: homodimer)
IC50 (Verticillium dahliae): 0.5 mg/L
IC50 (Venturia inaequalis): 1 µg/mL
IC50 (Escherichia coli; [7]): > 500 mg/L
IC50 (Escherichia coli; MEDIUM -Ca/K): > 500 mg/L
IC50 (Sarcina lutea; [7]): > 500 mg/L
IC50 (Sarcina lutea; MEDIUM -Ca/K): 50 mg/L
IC50 (Erwinia carotovora; [7]): > 500 mg/L
IC50 (Erwinia carotovora; MEDIUM -Ca/K): > 500 mg/L
IC50 (Bacillus megaterium; [7]): 10 mg/L
IC50 (Bacillus megaterium; MEDIUM -Ca/K): 2 mg/L
IC50 (Fusarium culmorum [1]): 3 µg/mL
IC50 (Phoma betae): 6 mg/L
IC50 (Nectria haematococca): 0.5 mg/L
IC50 [2]: 10 mg/L
IC50 (Alternaria brassicola): 6 mg/L
pI (Isoelectric focusing): about 10.5
IC50 [3]: 20 mg/L
Inhibitory activity against yeast (Saccharomyces cerevisiae; with Ca/K, 5 μg/ml): -
Inhibitory activity against yeast (Saccharomyces cerevisiae; with Ca/K, 50 μg/ml): +++
Inhibitory activity against yeast (Saccharomyces cerevisiae; with Ca/K, 500 μg/ml): +++
Inhibitory activity against yeast (Saccharomyces cerevisiae; without Ca/K, 5 μg/ml): +++
Inhibitory activity against yeast (Saccharomyces cerevisiae; without Ca/K, 50 μg/ml): +++
Inhibitory activity against yeast (Saccharomyces cerevisiae; without Ca/K, 500 μg/ml): +++
IC50 [4]: 5 µg/mL
IC50 (Ascochyta pisi): 6 µg/mL
Relative antifungal activity (shown as % of control activity) (Fusarium culmorum [5]; 80° C., 10 min): 100 % of control activity
Relative antifungal activity (shown as % of control activity) (Fusarium culmorum [5]; 90° C., 10 min): 100 % of control activity
Relative antifungal activity (shown as % of control activity) (Fusarium culmorum [5]; 100° C., 10 min): 100 % of control activity
Relative antifungal activity (shown as % of control activity) (Fusarium culmorum [5]; Chymotrypsin digestion, 100 μg/ml, 37° C., 16 hours): 50 % of control activity
Relative antifungal activity (shown as % of control activity) (Fusarium culmorum [5]; Control: Mj-AMP1 500 μg/ml or Mj-AMP2 100 μg/ml in 10 mM sodium phosphate buffer pH 7): 100 % of control activity
Relative antifungal activity (shown as % of control activity) (Fusarium culmorum [5]; Pronase E digestion, 100 μg/ml, 37° C., 16 hours): 25 % of control activity
Relative antifungal activity (shown as % of control activity) (Fusarium culmorum [5]; Proteinase K digestion, 100 μg/ml, 37° C., 16 hours): 100 % of control activity
Relative antifungal activity (shown as % of control activity) (Fusarium culmorum [5]; Reduction: DTT 2.5 mM, 37° C., 2 hours): < 3 % of control activity
Relative antifungal activity (shown as % of control activity) (Fusarium culmorum [5]; Trypsin digestion, 100 μg/ml, 37° C., 16 hours): 100 % of control activity
Relative antifungal activity (shown as % of control activity) (Fusarium culmorum [5]; pH 2, 60 min): 100 % of control activity
Relative antifungal activity (shown as % of control activity) (Fusarium culmorum [5]; pH 3, 60 min): 100 % of control activity
Relative antifungal activity (shown as % of control activity) (Fusarium culmorum [5]; pH 10, 60 min): 100 % of control activity
Relative antifungal activity (shown as % of control activity) (Fusarium culmorum [5]; pH 11, 60 min): 100 % of control activity
Sensitivity to protease (in words) (Fusarium culmorum [5]; pronase E): most sensitive
IC50 [6]: 1 mg/L
IC50 (Botrytis cinerea): 2 µg/mL
IC50 (Pyricularia oryzae): 0.5 mg/L

B1: UDA: known antifungal protein isolated from stinging nettle (Urtica dioica) rhizomes (protein, UniProt P11218 24-372, looked up)
Lectin/endochitinase 1: QRCGSQGGGGTCPALWCCSIWGWCGDSEPYCGRTCENKCWSGERSDHRCGAAVGNPPCGQDRCCSVHGWCGGGNDYCSGSKCQYRCSSSVRGPRVALSGNSTANSIGNVVVTEPLFDQMFSHRKDCPSQGFYSYHSFLVAAESFPAFGTIGDVATRKREVAAFLAHISQATSGERSDVENPHAWGLCHINTTTVTENDFCTSSDWPCAAGKKYSPRGPIQLTHNFNYGLAGQAIGEDLIQNPDLVEKDPIISFKTALWFWMSQHDNKPSCHDIVLNANSAANRIPNKGVIGNIISRAFGHDDFAVRSSSIGFYKRYCDMLGVSYGHDLKYWFDNTPSSEFQRIQMRVAA
IC50 (Verticillium dahliae): 80 mg/L
IC50 (Venturia inaequalis): 1,000 μg/ml
IC50 (Escherichia coli; [7]): > 500 mg/L
IC50 (Escherichia coli; MEDIUM -Ca/K): > 500 mg/L
IC50 (Sarcina lutea; [7]): > 500 mg/L
IC50 (Sarcina lutea; MEDIUM -Ca/K): > 500 mg/L
IC50 (Erwinia carotovora; [7]): > 500 mg/L
IC50 (Erwinia carotovora; MEDIUM -Ca/K): > 500 mg/L
IC50 (Bacillus megaterium; [7]): > 500 mg/L
IC50 (Bacillus megaterium; MEDIUM -Ca/K): 250 mg/L
IC50 (Fusarium culmorum [1]): > 1,000 μg/ml
IC50 (Phoma betae): 50 mg/L
IC50 (Nectria haematococca): 200 mg/L
IC50 (Alternaria brassicola): 200 mg/L
IC50 [3]: 200 mg/L
IC50 [4]: > 1,000 μg/ml
IC50 (Ascochyta pisi): 1,000 μg/ml
IC50 [6]: 20 mg/L
IC50 (Botrytis cinerea): > 1,000 μg/ml
